Key:
SARS-CoV-2 RBD = SARS-CoV-2 RBD (SARS-CoV-2, UniProt P0DTC2); experiment: ELISA
SARS-CoV RBD = SARS-CoV RBD (SARS-CoV, UniProt P59594); experiment: ELISA

Binder	EC50 (SARS-CoV-2 RBD) [ng/mL]	EC50 (SARS-CoV RBD) [ng/mL]
C140 (antibody, V domains shown) VH: EVQLVESGGGLVQPGGSLRLSCAASGVTVSSNYMSWVRQAPGKGLEWVSLIYSGGSTFYADSVKGRFTISRDNSENTLYLQMNTLRAEDTAVYYCARDLYYYGMDVWGQGTTVTVSS VL: DIQLTQSPSFLSASVGDRVTITCRASQGISSYLAWYQQKPGKAPKLLIYAASTLQSGVPSRFSGSGSGTEFTLTISSLQPEDFATYYCQQLNSYSYTFGQGTKLEIK	2.19	> 1000
C210 (antibody, V domains shown) VH: EVQLVESGGGLIQPGGSLRLSCAASGFTVSSNYMSWVRQAPGKGLEWVSVIYSGGSTFYADSVKGRFTFSRDNSKNTLYLQMNSLRAEDTAVYYCARDLMAYGMDVWGQGTTVTVSS VL: DIQLTQSPSFLSASVGDRVTITCRASQGISSYLAWYQQKPGKAPKLLIYAASTLQSGVPSRFSGSGSGTEFTLTISSLQPEDFATYYCQQLNSYPQGTFGGGTKVEIK	2.83	> 1000
C122 (antibody, V domains shown) VH: EVQLVESGGGLIQPGGSLRLSCAASGLTVSSNYMSWVRQAPGKGLEWVSVLYSGGSSFYADSVKGRFTISRDNSKNTLYLQMNSLRAEDTAVYYCARESGDTTMAFDYWGQGTLVTVSS VL: DIQLTQSPSFLSASVGDRVTITCRASQGISSYLAWYQQKPGKAPKLLIYAASTLQSGVPSRFSGSGSGTEFTLTISSLQPEDFATYYCQQLNSDSYTFGQGTKLEIK	2.67	> 1000
C123 (antibody, V domains shown) VH: EVQLVESGGGLIQPGGSLRLSCAASGVTVSRNYMSWVRQAPGKGLEWVSVIYSGGSTYYADSVKGRFTISRDNSKNTLYLQMNSLRAEDTAVYYCARDLSAAFDIWGQGTMVTVSS VL: DIQLTQSPSFLSASVGDRVTITCRASQGISSYLAWYQQKPGKAPKLLIYAASTLQSGVPSRFSGSGSGTEFTLTISSLQPEDFATYYCQQLNSYPPAFGQGTRLEIK	1.92	> 1000
C013 (antibody, V domains shown) VH: QVQLVQSGAEVKKPGSSVKVSCKASGGTFSSYAISWVRQAPGQGLEWMGGIIPIFGTANYAQKFQGRVTITADESTSTAYMELSSLRSEDTAVYYCARGNRLLYCSSTSCYLDAVRQGYYYYYYMDVWGKGTTVTVSS VL: EIVLTQSPATLSLSPGERATLSCRASQSVSSYLAWYQQKPGQAPRLLIYDASNRATGIPARFSGSGSGTDFTLTISSLEPEDFAVYYCQQRSNWPLTFGGGTKVEIK	2.59	> 1000
C018 (antibody, V domains shown) VH: not shown VL: DIQLTQSPSSLSASVGDRVTITCRASQSIRSYLNWYQQKPGKAPKLLIYAASSLQSGVPSRFSGSGSGTDFTLTISSLQPDDFATYYCQQSYSTPPATFGQGTKLEIK	1.53	> 1000
C110 (antibody, V domains shown) VH: QVQLQQSGAEVKKPGESLKISCKGSGYSFTSYWIGWVRQMPGKGLEWMGIIYPGDSDTRYSPSFQGQVTISADKSISTAYMQWSSLKASDTAMYYCARSFRDDPRIAVAGPADAFDIWGQGTMVTVSS VL: DIQMTQSPSTLSASVGDRVTITCRASQSISYWLAWYQQKPGKAPKLLIYQASSLESGVPSRFSGSESGTEFTLTISSLQPDDFATYYCQQYNSYPYTFGQGTKLEIK	7.29	> 1000
C116 (antibody, V domains shown) VH: QVQLVESGGGVVQPGRSLRLSCAASGFTYSTYAMHWVRQAPGKGLEWVAFISYDGSNKYYADSVKGRFTISRDNSKNTLYLQMNSLRAEDTAVYYCARDFYHNWFDPWGQGTLVTVSS VL: NFMLTQPHSVSESPGKTVTISCTGSSGSIASNYVQWYQQRPGSAPTTVIYEDNQRPSGVPDRFSGSIDRSSNSASLTISGLKTEDEADYYCQSYDSGNHWVVFGGGTRLTVL	37.6	> 1000
C117 (antibody, V domains shown) VH: QVQLVESGGGVVQPGRSLRLSCAASGFTFSTYAMHWVRQAPGEGLEWVAVISYDGSNTYYADSVKGRFTISRDNSKNTLYLQMNSLRAEDTAVYYCARDPIWFGELLSPPFVHFDYWGQGTLVTVSS VL: QSVLTQPPSVSAAPGQKVTISCSGSSSNIGNNLVSWYQQLPGTAPKLLIYENNKRPSGIPDRFSGSKSGTSATLGITGLQTGDEADYYCGAWDSSLSAGGVYVFGTGTKVTVL	5.38	> 1000
C031 (antibody, V domains shown) VH: EVQLVESGGGLVQPGGSLRLSCAASGFTFSSYDMHWVRQATGKGLEWVSAIGTAGDTYYPGSVKGRFTISRENAKNSLYLQMNSLRAGDTAVYYCARVGYDSSGYSGWYFDLWGRGTLVTVSS VL: not shown	22.7	> 1000
C201 (antibody, V domains shown) VH: EVQLVESGGGLVQPGRSLRLSCAASGFTFDDYAMHWVRQAPGKGLEWVSGISWNSGSIGYADSVKGRFTISRDNAKNSLYLQMNSLRAEDTALYYCVKGVEYSSSSNFDYWGQGTLVTVSS VL: IRMTQSPSSVSASVGDRVTITCRASQGISSWLAWYQQKPGKAPKLLIYVESSLQSGVPSRFSGSGSGTDFTLTISSLQPEDFATYYCQQANSFPLTFGGGTKVEIK	2.98	> 1000
C005 (antibody, V domains shown) VH: QVQLVQSGPEVKKPGTSVKVSCKASGFTFTSSAVQWVRQARGQRLEWIGWIVVGSGNTNYAQKFQERVTITRDMSTSTAYMELSSLRSEDTAVYYCAAPHCSGGSCLDAFDIWGQGTMVTVSS VL: not shown	4.41	> 1000
C202 (antibody, V domains shown) VH: EVQLVESGGGLVQPGGSLRLSCAASGFTVSSNYMSWVRQAPGKGLEWVSLIYSGGSTYYADSVKGRFTISRDNSKNTLYLQMNSLRAEDTAVYYCARDTLGRGGDYWGQGTLVTVSS VL: DIQLTQSPSSLSASVGDRVTITCQASQDISNYLNWYQQKPGKAPKLLIYDASNLETGVPSRFSGSGSGTDFTFTISSLQPEDIATYYCQQYDNLPRSFGQGTKLEIK	3.4	> 1000
C030 (antibody, V domains shown) VH: EVQLVESGGGVVQPGRSLRLSCAASGFTFSSYGMHWVRQAPGKGLEWVAVISYDGSNKYYADSVKGRFTISRDNSKNTLYLQMNSLRAEDTAVYYCAKASGIYCSGGNCYSYYFDYWGQGTLVTVSS VL: not shown	2.89	> 1000
C121 (antibody, V domains shown) VH: not shown VL: QSALTQPASVSGSPGQSITISCTGTSSDVGSYNLVSWYQQHPGKAPKLMIYEGSKRPSGVSNRFSGSKSGNTASLTISGLQAEDEADYYCCSYAGSSTLVFGGGTKLTVL	2.85	> 1000
C107 (antibody, V domains shown) VH: QVQLVQSGAEVKKPGASVRVSCKASGYTFTSYGFSWVRQAPGQGLEWMGWISAYNGNTNFAQKLQGRVTMTTDTSTSTAYMELRSLRSDDTAVYYCARGEAVAGTTGFFDYWGQGTLVTVSS VL: not shown	11.6	> 1000
C021 (antibody, V domains shown) VH: QVQLQESGPGLVKPSQTLSLTCTVSGGSISSGGYYWSWIRQHPGKGLEWIGYIYYSGSTYYNPSLKSRVTISVDTSKNQFSLKLSSVTAADTAVYYCARVWQYYDSSGSFDYWGQGTLVTVSS VL: not shown	1.25	> 1000
C143 (antibody, V domains shown) VH: EVQLVESGGGLVQPGGSLRLSCAASGFSVSTKYMTWVRQAPGKGLEWVSVLYSGGSDYYADSVKGRFTISRDNSKNALYLQMNSLRVEDTGVYYCARDSSEVRDHPGHPGRSVGAFDIWGQGTMVTVSS VL: QSALTQPASVSGSPGQSITISCTGTSNDVGSYTLVSWYQQYPGKAPKLLIFEGTKRSSGISNRFSGSKSGNTASLTISGLQGEDEADYYCCSYAGASTFVFGGGTKLTVL	3.66	> 1000
C164 (antibody, V domains shown) VH: EVQLVESGGGLVQPGGSLRLSCAASGFSVSTKYMTWVRQAPGKGLEWVSVLYSGGSDYYADSVKGRFTISRDNSKNALYLQMNSLRVEDTGVYYCARDSSEVRDHPGHPGRSVGAFDIWGQGTMVTVSS VL: QSALTQPASVSGSPGQSITISCTGTSNDVGSYTLVSWYQQYPGKAPKLLIFEVTKRSSGISNRFSGSKSGNTASLTISGLQGEDEADYYCCSYAGASTFVFGGGTKLTVL	2.06	> 1000
C216 (antibody, V domains shown) VH: EVQLVESGGGLVQPGGSLRLSCAASGFTFSSYDMHWVRQATGKGLEWVSAIGTAGDTYYPDSVKGRFTISRENAKNSLYLQMNSLRAGDTAVYYCARDRGSSGWYGWYFDLWGRGTLVTVSS VL: not shown	9.53	> 1000
C006 (antibody, V domains shown) VH: QVQLVESGGGLVKPGGSLRLSCAASGFIFSDYCMSWIRRAPGKGLEWLSYISNSGTTRYYADSVKGRFTISRDNGRNSLYLQMDSLSAEDTAVYYCARRGDGSSSIYYYNYMDVWGKGTTVTVSS VL: not shown	1.81	> 1000
C141 (antibody, V domains shown) VH: not shown VL: NFMLTQPHSVSESPGKTVTISCTGSSGSIASNYVQWYQQRPGSAPTTVIYEDNQRPSGVPDRFSGSIDSSSNSASLTISGLKTEDEADYYCQSYDSSNWVFGGGTKLTVL	1.71	> 1000
C019 (antibody, V domains shown) VH: QVQLVQSGAEVKKPGASVKVSCKASGYTFTSYYMHWVRQAPGQGLEWMGIINPSGGSTSYAQKFQGRVTMTRDTSTSTVYMELSSLRSEDTAVYYCARVPREGTPGFDPWGQGTLVTVSS VL: not shown	11.8	> 1000
C205 (antibody, V domains shown) VH: QVQLVQSGAEVKKPGASVKVSCKASGHTFTSYYMHWVRQAPGQGLEWMGIINPSGGSTSYAQKFQGRVTMTRDTSTSTVYMELSSLRSEDTAVYYCARGPERGIVGATDYFDYWGQGTLVTVSS VL: not shown	> 1000	> 1000

From patent publication US11634477 (dated 2023)
